Test results taken from article PMC2139831 (The Journal of Cell Biology, 1997).

Tests used:
Test in all cases: two-hybrid
[1] = target: Chs4p^C693S (S. cerevisiae) (UniProt P34226)
Cdc10p (S. cerevisiae) = Cdc10p (S. cerevisiae) (UniProt P25342)
Chs4p (S. cerevisiae) = Chs4p (S. cerevisiae) (UniProt P34226)
Chs4p = target: T1, Chs4p (S. cerevisiae, UniProt P34226 1-696)
T1 sequence (looked up): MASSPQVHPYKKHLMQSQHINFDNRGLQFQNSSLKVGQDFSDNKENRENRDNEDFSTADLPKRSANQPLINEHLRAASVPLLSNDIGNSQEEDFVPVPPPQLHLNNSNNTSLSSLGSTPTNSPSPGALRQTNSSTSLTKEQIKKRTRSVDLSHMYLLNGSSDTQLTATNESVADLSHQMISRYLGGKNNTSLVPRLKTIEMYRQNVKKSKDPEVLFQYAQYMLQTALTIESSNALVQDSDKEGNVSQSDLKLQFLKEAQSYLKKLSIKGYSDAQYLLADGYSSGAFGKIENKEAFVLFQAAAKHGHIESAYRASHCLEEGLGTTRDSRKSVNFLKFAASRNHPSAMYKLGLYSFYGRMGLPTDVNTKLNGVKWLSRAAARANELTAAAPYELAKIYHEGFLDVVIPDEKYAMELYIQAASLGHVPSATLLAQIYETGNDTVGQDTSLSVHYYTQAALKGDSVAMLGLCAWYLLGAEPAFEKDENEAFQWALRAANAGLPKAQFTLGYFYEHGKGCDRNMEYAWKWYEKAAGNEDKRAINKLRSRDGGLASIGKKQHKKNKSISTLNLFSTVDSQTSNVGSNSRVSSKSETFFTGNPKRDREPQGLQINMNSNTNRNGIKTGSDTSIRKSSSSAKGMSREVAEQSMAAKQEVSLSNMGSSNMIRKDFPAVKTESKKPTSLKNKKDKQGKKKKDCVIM

two-hybrid = target: the molecule itself
Chs4p^C693S = target: T2, Chs4p^C693S (S. cerevisiae, UniProt P34226 1-696, C693S)
T2 sequence (looked up): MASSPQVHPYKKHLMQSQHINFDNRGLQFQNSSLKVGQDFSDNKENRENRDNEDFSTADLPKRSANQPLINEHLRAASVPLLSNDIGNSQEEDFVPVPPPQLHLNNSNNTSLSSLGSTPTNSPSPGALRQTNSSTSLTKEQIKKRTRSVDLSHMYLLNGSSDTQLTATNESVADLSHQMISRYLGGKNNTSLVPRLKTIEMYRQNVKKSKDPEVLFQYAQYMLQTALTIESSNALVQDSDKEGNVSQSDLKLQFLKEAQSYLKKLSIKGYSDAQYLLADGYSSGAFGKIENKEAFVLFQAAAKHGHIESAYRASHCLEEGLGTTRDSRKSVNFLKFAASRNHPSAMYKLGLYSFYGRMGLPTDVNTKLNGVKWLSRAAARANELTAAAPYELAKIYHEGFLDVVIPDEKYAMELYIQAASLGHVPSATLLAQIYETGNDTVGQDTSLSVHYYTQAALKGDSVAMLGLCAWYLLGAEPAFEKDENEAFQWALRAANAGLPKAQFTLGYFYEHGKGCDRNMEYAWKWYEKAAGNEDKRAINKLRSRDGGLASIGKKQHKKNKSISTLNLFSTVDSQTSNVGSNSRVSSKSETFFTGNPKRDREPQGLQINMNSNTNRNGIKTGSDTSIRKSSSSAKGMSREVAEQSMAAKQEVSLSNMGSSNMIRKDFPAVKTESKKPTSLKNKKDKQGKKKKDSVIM

Chain of Cdc10p (S. cerevisiae) (P25342 whole entry): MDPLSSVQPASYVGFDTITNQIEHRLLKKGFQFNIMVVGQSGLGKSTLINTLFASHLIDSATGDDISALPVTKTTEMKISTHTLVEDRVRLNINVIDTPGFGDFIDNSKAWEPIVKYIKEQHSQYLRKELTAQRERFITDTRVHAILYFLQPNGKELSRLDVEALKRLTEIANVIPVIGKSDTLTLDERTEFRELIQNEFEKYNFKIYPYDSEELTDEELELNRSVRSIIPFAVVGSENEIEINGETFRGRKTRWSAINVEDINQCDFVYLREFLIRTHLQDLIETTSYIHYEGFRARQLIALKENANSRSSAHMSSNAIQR

“Bni4pE (from UniProt P53858 65-730) (domain or fragment)” gave a units of β-galactosidase activity (units of β-galactosidase activity) [1] of 2220, a units of β-galactosidase activity (units of β-galactosidase activity) (Cdc10p (S. cerevisiae)) of 1010 and a units of β-galactosidase activity (units of β-galactosidase activity) (Chs4p (S. cerevisiae)) of 238.

B1: Chs3p^Δ700 (domain or fragment, S. cerevisiae, UniProt P29465 1-700, looked up)
chain: MTGLNGDDPDDYYLNLNQDEESLLRSRHSVGSGAPHRQGSLVRPERSRLNNPDNPHFYYAQKTQEQMNHLDVLPSSTGVNPNATRRSGSLRSKGSVRSKFSGRETDSYLLQDMNTTDKKASVKISDEGVAEDEFDKDGDVDNFEESSTQPINKSIKPLRKETNDTLSFWQMYCYFITFWAPAPILAFCGMPKKERQMAWREKVALISVILYIGAIVAFLTFGFTKTVCSSSKLRLKNNEVSTEFVVINGKAYELDTSSRSGIQDVEVDSDTLYGPWSDAGKDASFLFQNVNGNCHNLITPKSNSSIPHDDDNNLAWYFPCKLKNQDGSSKPNFTVENYAGWNCHTSKEDRDAFYGLKSKADVYFTWDGIKNSSRNLIVYNGDVLDLDLLDWLEKDDVDYPVVFDDLKTSNLQGYDLSLVLSNGHERKIARCLSEIIKVGEVDSKTVGCIASDVVLYVSLVFILSVVIIKFIIACYFRWTVARKQGAYIVDNKTMDKHTNDIEDWSNNIQTKAPLKEVDPHLRPKKYSKKSLGHKRASTFDLLKKHSSKMFQFNESVIDLDTSMSSSLQSSGSYRGMTTMTTQNAWKLSNENKAVHSRNPSTLLPTSSMFWNKATSSPVPGSSLIQSLDSTIIHPDIVQQPPLDFMPYGFPLIHTICFVTCYSEDEEGLRTTLDSLSTTDYPNSHKLLMVVCDGLIKGSGN
With B1 the “units of β-galactosidase activity” value (Chs4p) was 617 units of β-galactosidase activity, the “units of β-galactosidase activity” value (two-hybrid) was 123 units of β-galactosidase activity and the “units of β-galactosidase activity” value (Chs4p^C693S) was 568 units of β-galactosidase activity.
